This is an account of results in publication PMC11721465 (Molecular Neurodegeneration, 2025).

B1: TREM2 (19–134) WT, biotinylated (domain or fragment, human, UniProt Q9NZC2 19-134, looked up)
chain: HNTTVFQGVAGQSLQVSCPYDSMKHWGRRKAWCRQLGEKGPCQRVVSTHNLWLLSFLRRWNGSTAITDDTLGGTLTITLRNLQPHDAGLYQCQSLHGSEADTLRKVLVEVLADPLD
modifications: biotin on the C-terminal BirA biotinylation sequence (enzymatic, BirA)
notes: glycosylated (mammalian cells); also called TREM2 WT; source: Expi293F cells, purified, enzymatically biotinylated using BirA
B2: TREM2 (19–134) R47H, biotinylated (domain or fragment, human, UniProt Q9NZC2 19-134, looked up)
chain: B1 chain with R29H
modifications: biotin on the C-terminal BirA biotinylation sequence (enzymatic, BirA)
notes: AD risk variant that occurs in nature; source: Expi293F cells, purified, enzymatically biotinylated using BirA
B3: TREM2 (19–134) D87N, biotinylated (domain or fragment, human, UniProt Q9NZC2 19-134, looked up)
chain: B1 chain with D69N
modifications: biotin on the C-terminal BirA biotinylation sequence (enzymatic, BirA)
notes: as for B2
B4: TREM2 (19–134) R62H, biotinylated (domain or fragment, human, UniProt Q9NZC2 19-134, looked up)
chain: B1 chain with R44H
modifications: biotin on the C-terminal BirA biotinylation sequence (enzymatic, BirA)
notes: as for B2
B5: TREM2 (19–134) R77D, biotinylated (domain or fragment, human, UniProt Q9NZC2 19-134, looked up)
chain: B1 chain with R59D
modifications: biotin on the C-terminal BirA biotinylation sequence (enzymatic, BirA)
notes: source: Expi293F cells, purified, enzymatically biotinylated using BirA
B6: TREM2 (19–134) L75D, biotinylated (domain or fragment, human, UniProt Q9NZC2 19-134, looked up)
chain: B1 chain with L57D
modifications: biotin on the C-terminal BirA biotinylation sequence (enzymatic, BirA)
notes: as for B5
B7: TREM2 (19–134) W44D/L69D/L71D, biotinylated (domain or fragment, human, UniProt Q9NZC2 19-134, looked up)
chain: B1 chain with W26D, L51D, L53D
modifications: biotin on the C-terminal BirA biotinylation sequence (enzymatic, BirA)
notes: as for B5
B8: TREM2 (19–134) L69D/L71D, biotinylated (domain or fragment, human, UniProt Q9NZC2 19-134, looked up)
chain: B1 chain with L51D, L53D
modifications: biotin on the C-terminal BirA biotinylation sequence (enzymatic, BirA)
notes: as for B5
B9: TREM2 (19–134) R122E, biotinylated (domain or fragment, human, UniProt Q9NZC2 19-134, looked up)
chain: B1 chain with R104E
modifications: biotin on the C-terminal BirA biotinylation sequence (enzymatic, BirA)
notes: as for B5
B10: TREM2 (19–134) W78D, biotinylated (domain or fragment, human, UniProt Q9NZC2 19-134, looked up)
chain: B1 chain with W60D
modifications: biotin on the C-terminal BirA biotinylation sequence (enzymatic, BirA)
notes: as for B5
B11: TREM2 (19–134) R122D/K123D, biotinylated (domain or fragment, human, UniProt Q9NZC2 19-134, looked up)
chain: B1 chain with R104D, K105D
modifications: biotin on the C-terminal BirA biotinylation sequence (enzymatic, BirA)
notes: as for B5
B12: TREM2 (19–134) T96K, biotinylated (domain or fragment, human, UniProt Q9NZC2 19-134, looked up)
chain: B1 chain with T78K
modifications: biotin on the C-terminal BirA biotinylation sequence (enzymatic, BirA)
notes: as for B2
B13: TREM2 (19–134) R46D, biotinylated (domain or fragment, human, UniProt Q9NZC2 19-134, looked up)
chain: B1 chain with R28D
modifications: biotin on the C-terminal BirA biotinylation sequence (enzymatic, BirA)
notes: as for B5
B14: TREM2 (19–134) T85D, biotinylated (domain or fragment, human, UniProt Q9NZC2 19-134, looked up)
chain: B1 chain with T67D
modifications: biotin on the C-terminal BirA biotinylation sequence (enzymatic, BirA)
notes: as for B5

Positions count from the first letter of the chain named. Names and notes keep the numbering of the source.

In one experiment the target is T1, oligomeric amyloid beta 42 (UniProt P05067 672-713).
T1 construct: amyloid beta 42 (Aβ42), cut product of the amyloid precursor protein; oligomers of unstated size; also called oAβ42; Aβ42 oligomers; source: bought: Anaspec; oligomers made from HFIP/DMSO-treated peptide in PBS, 37 °C, 3 h
Kind of experiment: not stated; KD of oAβ42 and TREM2 referred to Supplemental Fig. 9; method not given. To be noted: both partners purified.
In the case of B1, the Kd worked out at 42 nM.

In a further experiment the target is T2, TDP-43, full length, soluble oligomers (human, UniProt Q13148 1-414).
T2 construct: TDP-43, human, full length; oligomers of unstated size; also called oligomeric TDP-43; TDP-43 oligomers; source: E coli, purified from insoluble inclusion bodies, solubilized in 6 M guanidine, oligomers made by 1:100 dilution
T2 sequence (Q13148 whole entry): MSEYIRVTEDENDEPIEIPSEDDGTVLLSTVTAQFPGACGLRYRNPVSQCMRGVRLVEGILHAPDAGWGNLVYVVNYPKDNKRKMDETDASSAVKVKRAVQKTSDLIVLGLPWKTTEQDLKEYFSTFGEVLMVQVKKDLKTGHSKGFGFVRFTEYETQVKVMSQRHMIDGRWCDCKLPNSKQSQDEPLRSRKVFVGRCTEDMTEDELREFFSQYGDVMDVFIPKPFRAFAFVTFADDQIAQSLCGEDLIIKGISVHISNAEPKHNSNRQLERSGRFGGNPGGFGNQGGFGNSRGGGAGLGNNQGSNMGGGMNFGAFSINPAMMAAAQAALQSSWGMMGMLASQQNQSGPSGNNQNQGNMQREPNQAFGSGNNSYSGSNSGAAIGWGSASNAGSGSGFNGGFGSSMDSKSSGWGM
Kind of experiment: BLI; biotinylated TREM2 WT or variant immobilised on SA biosensors; TDP-43 oligomers 0.625–10 µM; PBS with 0.1% BSA and 0.005% Tween-20; biphasic curves, only qualitatively evaluated. Particulars: both partners purified.
B1: the binding result is reported as “binds”.

Consider B2, for which the binding result was “binds”.

Take B3: the binding result is recorded as “binds”.

With B4, the binding result was “binds”.

The target in another experiment is T3, apolipoprotein E3 (UniProt P02649 19-317).
T3 construct: also called apoE3
T3 sequence (P02649 19-317): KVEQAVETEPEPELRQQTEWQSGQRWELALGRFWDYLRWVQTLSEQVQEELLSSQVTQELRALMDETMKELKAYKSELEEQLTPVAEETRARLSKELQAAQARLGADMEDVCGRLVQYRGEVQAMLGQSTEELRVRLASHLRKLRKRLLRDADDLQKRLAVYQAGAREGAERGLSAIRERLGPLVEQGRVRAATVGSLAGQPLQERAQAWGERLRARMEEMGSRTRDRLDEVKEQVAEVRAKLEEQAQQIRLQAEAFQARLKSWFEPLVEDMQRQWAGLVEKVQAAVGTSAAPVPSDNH
Put plainly: BLI; biotinylated TREM2 WT or variant immobilised on streptavidin (SA) biosensors; apoE in solution (apoE4 0.012–50 µM); PBS with 0.1% BSA and 0.005% Tween-20; double-reference subtraction; steady-state analysis. To be noted: both partners purified.
For the molecule B3, the Kd worked out at 79 nM.

The target of the next experiment is T4, Human IL-34 (19–241) (human, UniProt Q6ZMJ4 19-241).
T4 construct: IL-34, human, residues 19-241; source: Expi293F cells, secreted, purified from the media using NiNTA chromatography
T4 sequence (looked up): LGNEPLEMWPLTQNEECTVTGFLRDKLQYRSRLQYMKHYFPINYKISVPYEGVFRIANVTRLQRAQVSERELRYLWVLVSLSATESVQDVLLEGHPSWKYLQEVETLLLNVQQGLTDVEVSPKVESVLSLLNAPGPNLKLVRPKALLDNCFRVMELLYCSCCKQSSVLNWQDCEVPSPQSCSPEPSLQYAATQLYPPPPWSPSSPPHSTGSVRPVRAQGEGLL
Put plainly: BLI; biotinylated TREM2 WT or variant immobilised on SA biosensors; IL-34 62.5–1000 nM; PBS with 0.1% BSA and 0.005% Tween-20; 1:1 kinetic fits. To be noted: both partners purified.
Molecule B1 had a Kd of 16.5 ± 0.2 nM.

On to B5, for which the Kd is 114 ± 4 nM.

Molecule B6 gave a Kd of 36.6 ± 0.9 nM.

As to B7, the affinity, expressed as Kd, was 25.8 ± 0.3 nM.

Regarding B2, the Kd stood at 79.8 ± 2.4 nM.

With B8, the Kd was found to be 20.2 ± 0.3 nM.

The molecule B9 returned a Kd of 29.4 ± 0.4 nM.

B10: binding was put at a Kd of 17.2 ± 0.4 nM.

Molecule B11 returned a Kd of 18.5 ± 0.3 nM.

Consider B12, for which binding was put at a Kd of 23.7 ± 0.4 nM.

The molecule B13 showed a Kd of 18 ± 0.3 nM.

As for B14, binding was characterised by a dissociation constant (Kd) of 21.5 ± 0.6 nM.

With B3, the Kd was determined as 28.4 ± 0.5 nM.

As to B4, the Kd was found to be 75 nM.
